Assay [1] has as its target 6His-RVFV NP (Rift Valley fever virus nucleoprotein with N-terminal hexahistidine tag) (Rift Valley fever virus (strain Smithburn)) (UniProt P21700). Kind of assay: SEC. (In general: SEC sorts molecules by how far they enter the pores of the column.)
The target is the same in assay [2]. Kind of assay: SEC. The source holds these as a separate data set.

We go through one substance from PMC3014985.

“And” between values parts separate entries of the source, which are not always exact repeats. Equal entries are not always repeated. Where two headings read alike, the source gives them in different places.

Usually stoichiometry N stands for the number of molecules, sites or subunits per partner or assembly. For the substance “6His-RVFV NP (Rift Valley fever virus nucleoprotein with N-terminal hexahistidine tag) (from UniProt P21700 1-245) (natural protein)”, the stoichiometry N is 3 and 2 in assay [1]; 4.3 in assay [2].
